{"source": "patent US20230183291A1", "about": "(Bicycle, published 2023)", "binders": {"B1": {"name": "BCY17688 (peptide)", "peptide": "CNAVLCSWARANSFC", "modifications": "linker 1-6-15 via TATA", "notes": "bicyclic peptide without terminal additions"}}, "note": "Numbered stars: 1 amine (or outer) side, 2 acyl side, 3 side chain; on linkers, the order of the positions; unused ones are H or OH. Bridge positions count the residues as written; N and C are the ends. Square brackets hold non-standard residues; d marks the D form. Ends that are not written are not given here. Hse(Me) = O-methyl-homoserine, COCC[C@H](N[*:1])C(=O)[*:2]; TATA = O=C(CC[*:1])N1CN(C(=O)CC[*:2])CN(C(=O)CC[*:3])C1; Phe(3-Cl) = N[C@@H](Cc1cccc(Cl)c1)C(=O)O; Phe(2-Cl) = N[C@@H](Cc1ccccc1Cl)C(=O)O; Phe(3-F) = N[C@@H](Cc1cccc(F)c1)C(=O)O; Phe(3-Me) = Cc1cccc(C[C@H](N)C(=O)O)c1; Phe(4-Me) = Cc1ccc(C[C@H](N)C(=O)O)cc1; Phe(2-F) = N[C@@H](Cc1ccccc1F)C(=O)O; Phe(2-Me) = Cc1ccccc1C[C@H](N)C(=O)O; Hyp = O=C(O)[C@@H]1C[C@@H](O)CN1; hArg = N=C(N)NCCCC[C@H](N)C(=O)O; tBuAla = CC(C)(C)C[C@H](N)C(=O)O; Agb = N=C(N)NCC[C@H](N)C(=O)O; PYA = propargyl-acid"}
{"target": "T1, Biotinylated Human ACE2, His, Avitag protein (ACROBiosystems, AC2-H82E6) (human, UniProt Q9BYF1 18-740)", "T1 construct": "also called biotinylated ACE2; ACE2 protein; not shown: His tag and Avitag", "T1 sequence (Q9BYF1 18-740 limits assumed)": "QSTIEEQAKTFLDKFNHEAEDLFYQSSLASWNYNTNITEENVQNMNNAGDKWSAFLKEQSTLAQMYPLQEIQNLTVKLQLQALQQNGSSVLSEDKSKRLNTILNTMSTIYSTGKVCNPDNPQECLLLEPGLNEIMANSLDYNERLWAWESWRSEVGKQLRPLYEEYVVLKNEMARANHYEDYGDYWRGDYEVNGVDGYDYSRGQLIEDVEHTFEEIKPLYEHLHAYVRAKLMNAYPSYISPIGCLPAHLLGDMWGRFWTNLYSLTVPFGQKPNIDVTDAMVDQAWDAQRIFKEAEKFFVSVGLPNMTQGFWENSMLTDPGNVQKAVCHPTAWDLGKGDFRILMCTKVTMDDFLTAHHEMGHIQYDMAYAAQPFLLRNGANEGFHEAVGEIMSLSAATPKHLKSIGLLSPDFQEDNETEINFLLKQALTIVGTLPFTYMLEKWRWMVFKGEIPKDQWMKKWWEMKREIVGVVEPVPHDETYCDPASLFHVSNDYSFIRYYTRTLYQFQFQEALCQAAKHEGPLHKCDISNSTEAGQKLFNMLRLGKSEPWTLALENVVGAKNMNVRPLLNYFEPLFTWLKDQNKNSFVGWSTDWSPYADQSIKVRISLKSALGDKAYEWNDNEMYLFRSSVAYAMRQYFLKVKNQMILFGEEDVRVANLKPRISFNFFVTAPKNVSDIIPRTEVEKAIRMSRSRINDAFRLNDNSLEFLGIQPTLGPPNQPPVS", "experiment": "SPR single cycle kinetics, ACE2 captured on CAP chip, peptide analyte; geometric mean", "protocol": "(§1) Binding of bicyclic peptides of the invention to Biotinylated Human ACE2, His, Avitag™ protein (ACROBiosystems, AC2-H82E6) was assessed by a SCK analysis. Experiments were performed at 25° C. on a Biacore T200 (Cytiva) running Biacore T200 Control software V2.0.1 and Evaluation software V3.0 (Cytiva). HBS-EP+ (Cytiva) was used as running buffer as well as for ligand and analyte dilutions. Biotin CAPture reagent was loaded onto a Series S Sensor CAP Chip (Cytiva) followed by loading of the ACE2 protein at a flow rate of 2 μl/min. The surface was then allowed to stabilise.\n(§2) SCK data was obtained using bicyclic peptides of the invention as analytes injected at a flow rate of 30 μl/min to minimise any potential mass transfer effects. […] The association phases were monitored for 100 seconds for each of the four injections of increasing concentrations of analyte and a single dissociation phase was measured for 400 seconds following the last injection of analyte. Regeneration of the sensor chip surface was conducted using the CAP Chip standard regeneration buffer (Cytiva).\n(§3) The signal from the reference channel Fc1 (no ACE2 captured) was subtracted from that of Fc2, Fc3 and Fc4 to correct for bulk effect and differences in non-specific binding to a reference surface. The signal from each blank run (Fc2-ACE2 captured but no antigen) was subtracted to correct for differences in surface stability. The double referenced sensorgrams were fitted with the Langmuir (1:1) binding model (Equation 1a below) where the closeness of fit of the data to the model is evaluated using the Chi square value which describes the deviation between the experimental and fitted (observed and expected) curves (Equation 1b below).", "units": {"Kd": "nM"}}
{"binder": "ACNTVLCGWARANSLCA (linker 2-7-16 via TATA, bicyclic peptide, TATA scaffold)", "note": "[BCY17162]", "Kd": 5.7}
{"binder": "ACNQVLCRWAQVNSMCA (linker 2-7-16 via TATA, bicyclic peptide, TATA scaffold)", "note": "[BCY17158]", "Kd": 4}
{"binder": "ACNAVLCSWARANS[Phe(2-F)]CA (linker 2-7-16 via TATA, bicyclic peptide, TATA scaffold)", "note": "[BCY17341]", "Kd": 3.1}
{"binder": "ACNAVLCSWARANS[Phe(2-Me)]CA (linker 2-7-16 via TATA, bicyclic peptide, TATA scaffold)", "note": "[BCY17335]", "Kd": 2.5}
{"binder": "ACNAVLCSWARANS[Phe(3-Cl)]CA (linker 2-7-16 via TATA, bicyclic peptide, TATA scaffold)", "note": "[BCY17339]", "Kd": 4.7}
{"binder": "ACNAVLCSWARANS[Phe(4-Me)]CA (linker 2-7-16 via TATA, bicyclic peptide, TATA scaffold)", "note": "[BCY17337]", "Kd": 5}
{"binder": "Ac-ACNAVLCSWARANSFCA (linker 2-7-16 via TATA, bicyclic peptide, TATA scaffold)", "note": "[BCY17691]", "Kd": 3.9}
{"binder": "ACTELYKCWRGRCA (linker 2-8-13 via TATA, bicyclic peptide, TATA scaffold)", "note": "[BCY17156]", "Kd": 151}
{"binder": "ACPSQYKCWRGKCA (linker 2-8-13 via TATA, bicyclic peptide, TATA scaffold)", "note": "[BCY15427]", "Kd": 150}
{"binder": "ACNAVLCSWA[Agb]ANSFCA (linker 2-7-16 via TATA, bicyclic peptide, TATA scaffold)", "note": "[BCY17689]", "Kd": 4.7}
{"binder": "ACNAVLCSWARANS[Phe(3-F)]CA (linker 2-7-16 via TATA, bicyclic peptide, TATA scaffold)", "note": "[BCY17342]", "Kd": 3.3}
{"binder": "ACNTVLCAWATQNSLCA (linker 2-7-16 via TATA, bicyclic peptide, TATA scaffold)", "note": "[BCY17164]", "Kd": 14.8}
{"binder": "Ac-CNSVLCSWA[hArg]ANSFC (linker 1-6-15 via TATA, bicyclic peptide, TATA scaffold)", "note": "[BCY18658]", "Kd": 6.7}
{"binder": "Ac-CNTVLCSWA[hArg]ANSFC (linker 1-6-15 via TATA, bicyclic peptide, TATA scaffold)", "note": "[BCY18657]", "Kd": 69.3}
{"binder": "ACNTVLCAWARANSYCA (linker 2-7-16 via TATA, bicyclic peptide, TATA scaffold)", "note": "[BCY17161]", "Kd": 4.2}
{"binder": "ACSPVLCAWATRNSLCA (linker 2-7-16 via TATA, bicyclic peptide, TATA scaffold)", "note": "[BCY17165]", "Kd": 12.5}
{"binder": "ACNTLYKCWRGKCA (linker 2-8-13 via TATA, bicyclic peptide, TATA scaffold)", "note": "[BCY17155]", "Kd": 107}
{"binder": "ACESLYKCWRGRCA (linker 2-8-13 via TATA, bicyclic peptide, TATA scaffold)", "note": "[BCY17154]", "Kd": 104}
{"binder": "ACNAVLCSWARANS[Phe(2-Cl)]CA (linker 2-7-16 via TATA, bicyclic peptide, TATA scaffold)", "note": "[BCY17338]", "Kd": 3.2}
{"binder": "ACDTLYKCWRGRCA (linker 2-8-13 via TATA, bicyclic peptide, TATA scaffold)", "note": "[BCY17153]", "Kd": 91.7}
{"binder": "B1", "Kd": 2.7}
{"binder": "ACNRVLCAWATANSMCA (linker 2-7-16 via TATA, bicyclic peptide, TATA scaffold)", "note": "[BCY17159]", "Kd": 4.7}
{"binder": "Ac-CNAVLCSWARANSFC (linker 1-6-15 via TATA, bicyclic peptide, TATA scaffold)", "note": "[BCY17663]", "Kd": 5.3}
{"binder": "ACAEIYKCWRGRCA (linker 2-8-13 via TATA, bicyclic peptide, TATA scaffold)", "note": "[BCY17152]", "Kd": 120}
{"binder": "ACNAV[tBuAla]CSWARANSFCA (linker 2-7-16 via TATA, bicyclic peptide, TATA scaffold)", "note": "[BCY17333]", "Kd": 5}
{"binder": "Ac-CNAVLCSWA[hArg]ANSFCK(PYA) (linker 1-6-15 via TATA, bicyclic peptide, TATA scaffold)", "note": "[BCY18784]", "Kd": 25.3}
{"binder": "ACNTVLCNWARYNSLCA (linker 2-7-16 via TATA, bicyclic peptide, TATA scaffold)", "note": "[BCY17160]", "Kd": 4.2}
{"binder": "Ac-CN[hArg]VLCSWA[hArg]ANSFC (linker 1-6-15 via TATA, bicyclic peptide, TATA scaffold)", "note": "[BCY18350]", "Kd": 8.3}
{"binder": "ACNAVLCSWARANSFCA (linker 2-7-16 via TATA, bicyclic peptide, TATA scaffold)", "note": "[BCY15429]", "Kd": 3.4}
{"binder": "ACNAVLCSWARANSYCA (linker 2-7-16 via TATA, bicyclic peptide, TATA scaffold)", "note": "[BCY17690]", "Kd": 4.8}
{"binder": "ACNKVLCSWASRNSMCA (linker 2-7-16 via TATA, bicyclic peptide, TATA scaffold)", "note": "[BCY17157]", "Kd": 11.8}
{"binder": "ACNAVLCSWARANS[Phe(3-Me)]CA (linker 2-7-16 via TATA, bicyclic peptide, TATA scaffold)", "note": "[BCY17336]", "Kd": 8.3}
{"binder": "ACNTVLCAWAMNNSMCA (linker 2-7-16 via TATA, bicyclic peptide, TATA scaffold)", "note": "[BCY17163]", "Kd": 36.8}
{"target": "T1, Biotinylated Human ACE2, His, Avitag …", "experiment": "SPR multiple cycle kinetics, ACE2 captured on CAP chip, peptide analyte 6.25-100 nM; geometric mean", "protocol": "Binding of bicyclic peptides of the invention to Biotinylated Human ACE2, His, Avitag™ protein (ACROBiosystems, AC2-H82E6) was assessed by a MCK analysis. Experiments were performed at 25° C. on a Biacore T200 (Cytiva) running Biacore T200 Control software V2.0.1 and Evaluation software V3.0 (Cytiva). HBS-EP+(Cytiva) was used as running buffer as well as for ligand and analyte dilutions. Biotin CAPture reagent was loaded onto a Series S Sensor CAP Chip (Cytiva) followed by loading of biotinylated ACE2 at a flow rate of 2 μl/min. The surface was then allowed to stabilise.\nMCK data was obtained using bicyclic peptides of the invention as analytes injected at a flow rate of 30 μl/min to minimise any potential mass transfer effects. A five point, two-fold dilution range from 6.25 nM to 100 nM of analyte was prepared in running buffer. For each concentration, the association phases were monitored for 250 seconds and the dissociation phase was measured for 450 seconds. Regeneration of the sensor chip surface was conducted between cycles using the CAP Chip standard regeneration buffer (Cytiva). Multiple repeats of a blank and of Bicycle were programmed into the kinetic run in order to check the stability of both the surface and analyte over the kinetic cycles.\nas §3, with “above)” for “below)”, “1 b above).” for “1b below).”", "units": {"Kd": "nM"}}
{"binder": "ACNTVLCGWARANSLCA (linker 2-7-16 via TATA, bicyclic peptide, TATA scaffold)", "note": "[BCY17162]", "Kd": 11.4}
{"binder": "ACNQVLCRWAQVNSMCA (linker 2-7-16 via TATA, bicyclic peptide, TATA scaffold)", "note": "[BCY17158]", "Kd": 8.1}
{"binder": "Ac-CNTVLCGWA[hArg]ANSLCAK(PYA) (linker 1-6-15 via TATA, bicyclic peptide, TATA scaffold)", "note": "[BCY18549]", "Kd": 42.9}
{"binder": "Ac-CNAVLCSWA[hArg]ANSFC (linker 1-6-15 via TATA, bicyclic peptide, TATA scaffold)", "note": "[BCY18259]", "Kd": 13}
{"binder": "Ac-CNSVLCSWA[hArg]ANSFC (linker 1-6-15 via TATA, bicyclic peptide, TATA scaffold)", "note": "[BCY18658]", "Kd": 13.5}
{"binder": "Ac-CNAVLCSWA[hArg]TNSFC (linker 1-6-15 via TATA, bicyclic peptide, TATA scaffold)", "note": "[BCY19025]", "Kd": 70.7}
{"binder": "Ac-CNAVLCSWA[hArg]SNSFC (linker 1-6-15 via TATA, bicyclic peptide, TATA scaffold)", "note": "[BCY19026]", "Kd": 45.2}
{"binder": "ACNTVLCAWARANSYCA (linker 2-7-16 via TATA, bicyclic peptide, TATA scaffold)", "note": "[BCY17161]", "Kd": 4.4}
{"binder": "Ac-CN[Hyp]VLCSWA[hArg]ANSFC (linker 1-6-15 via TATA, bicyclic peptide, TATA scaffold)", "note": "[BCY18210]", "Kd": 10.6}
{"binder": "Ac-CNTVLCGWARANSLCK(PYA) (linker 1-6-15 via TATA, bicyclic peptide, TATA scaffold)", "note": "[BCY18550]", "Kd": 15.6}
{"binder": "ACNTVLCNWARYNSLCA (linker 2-7-16 via TATA, bicyclic peptide, TATA scaffold)", "note": "[BCY17160]", "Kd": 4.8}
{"binder": "ACNAVLCSWARANSFCA (linker 2-7-16 via TATA, bicyclic peptide, TATA scaffold)", "note": "[BCY15429]", "Kd": 4}
{"target": "T1, Biotinylated Human ACE2, His, Avitag …", "experiment": "SPR single cycle kinetics, ACE2 captured on CAP chip, peptide analyte; geometric mean; * Rmax set to 10", "protocol": "as §1, §2, §3", "units": {"Kd": "nM"}}
{"binder": "Ac-CNRVLCAWATANS[Hse(Me)]CK(PYA) (linker 1-6-15 via TATA, bicyclic peptide, TATA scaffold)", "note": "[BCY18349]", "Kd": 59.6}
{"binder": "Ac-CNTVLCGWA[hArg]ANSLCAK(PYA) (linker 1-6-15 via TATA, bicyclic peptide, TATA scaffold)", "note": "[BCY18549]", "Kd": 63.9}
{"binder": "Ac-CNAVLCSWA[hArg]ANSFC (linker 1-6-15 via TATA, bicyclic peptide, TATA scaffold)", "note": "[BCY18259]", "Kd": 23}
{"binder": "Ac-CN[Hyp]VLCSWA[hArg]ANSFC (linker 1-6-15 via TATA, bicyclic peptide, TATA scaffold)", "note": "[BCY18210]", "Kd": 21.1}
{"binder": "Ac-CNTVLCGWARANSLCK(PYA) (linker 1-6-15 via TATA, bicyclic peptide, TATA scaffold)", "note": "[BCY18550]", "Kd": 9.7}
